The record followed here is patent US20240168030A1, “DIRECT FLUORESCENT GLYCAN LABELING” (BIO-TECHNE CORPORATION, priority 2019, published 2024).

Common to all, as to assay type: biochemical
One data set has as its target T1, ST3Gal1 (Homo sapiens, UniProt Q11201).
T1 construct: purchased R&D Systems (Bio-Techne, Minneapolis, MN)
T1 sequence (Q11201 1-340): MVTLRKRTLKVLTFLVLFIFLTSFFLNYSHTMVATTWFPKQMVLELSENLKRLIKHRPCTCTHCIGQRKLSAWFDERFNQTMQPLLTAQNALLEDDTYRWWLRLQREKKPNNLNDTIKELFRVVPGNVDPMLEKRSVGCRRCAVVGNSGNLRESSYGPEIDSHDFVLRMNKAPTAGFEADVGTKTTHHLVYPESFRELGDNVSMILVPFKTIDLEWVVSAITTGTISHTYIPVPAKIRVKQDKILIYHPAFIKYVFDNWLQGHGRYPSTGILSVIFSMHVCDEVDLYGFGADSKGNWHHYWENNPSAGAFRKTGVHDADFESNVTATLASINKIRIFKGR
The experiment in a line: Direct fluorescent glycan labeling (DFGL) with fluorophore-conjugated sialic acid by ST3Gal1. The conditions noted are these: for Lower limit of detection of acceptor protein labeled by ST3Gal1: 0.2 nmol CMP-Cy5-SA, fluorescent imaging of SDS-PAGE.

In another data set the target is T2, ST6Gal1 (Homo sapiens, UniProt P15907).
T2 construct: purchased R&D Systems (Bio-Techne, Minneapolis, MN)
T2 sequence (P15907 1-406): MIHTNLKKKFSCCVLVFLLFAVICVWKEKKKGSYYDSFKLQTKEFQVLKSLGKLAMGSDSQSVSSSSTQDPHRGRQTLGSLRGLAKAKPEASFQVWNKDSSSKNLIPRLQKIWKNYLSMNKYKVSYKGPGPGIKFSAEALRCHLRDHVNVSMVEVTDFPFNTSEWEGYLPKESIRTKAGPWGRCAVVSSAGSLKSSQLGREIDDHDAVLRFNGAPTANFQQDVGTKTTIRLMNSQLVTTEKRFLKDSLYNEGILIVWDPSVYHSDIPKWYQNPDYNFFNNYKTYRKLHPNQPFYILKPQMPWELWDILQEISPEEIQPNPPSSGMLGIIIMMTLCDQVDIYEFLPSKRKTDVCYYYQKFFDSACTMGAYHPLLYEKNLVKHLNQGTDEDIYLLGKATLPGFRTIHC
The data set can be described thus: DFGL with fluorophore-conjugated sialic acid by ST6Gal1. The conditions noted are these: for Lower limit of detection of acceptor protein labeled by ST6Gal1: 0.2 nmol CMP-Cy5-SA, fluorescent imaging of SDS-PAGE.

The subject of data set [1] is fetal bovine fetuin and asialofetuin. The data set can be described thus: Labeling of fetuin and asialofetuin by sialyltransferases with CMP-f-SA. To be noted: CMP-f-SA donors, FIG. 2.
Data set [2] can be described thus: Enzymatic synthesis of Le^x and sLe^x by glycan gel electrophoresis, substrate G2. On the procedure:
FIG. 21A. Schematic view of the enzymatic steps for Le^X and sLe^X synthesis on the antibody glycan G0. The glycan short names follow that of FIG. 10. FIG. 21B Kinetic comparison of galactosylation on G0 by B4GalT1, sialyation on G2 by ST3Gal4 and ST6Gal1, and fucosylation on A2[3] by FUT7. The reaction time for B4GalT1 was 10 minutes. The reaction time for ST3Gal4, FUT7 and ST6Gal1 was 5 hours. In each case, the labeling enzyme was subject to a 3-fold serial dilution starting from 1 μg each of B4GalT1, FUT7 and ST6Gal1, and 3 μg ST3Gal4. FIG. 21C. […] Reaction time for both cases was 20 minutes. […] FIG. 21D. […] Reaction time for both cases was 20 minutes.
For a typical labeling reaction, 1 μg to 5 μg target protein was mixed with 0.2 nmol fluorophore-conjugated GDP-fucose and 0.2 μg of a fucosyltransferase in 30μL 25 mM Tris pH 7.5, 10 mM MnCl2. The mixture was incubated at 37° C. for 30 minutes. […] To release labeled glycans from a glycoprotein, the sample was first denatured by heating at 95° C. for two minutes in the presence of 0.5% SDS and 80 mM β-mercaptoethanol and then renatured with 1% Triton X-100, and finally treated with PNGase F at 10:1 mass ratio at 37° C. for 20 minutes. To release glycans from antibody, a sample was directly treated with Endo S at 10:1 mass ratio at 37° C. for 20 minutes. All samples were separated by sodium dodecyl sulfate—polyacrylamide gel electrophoresis (SDS-PAGE) at […]. For separating labeled glycoproteins and antibodies, 4-20% gradient SDS gel was used. For separating labeled free glycans, 15% or 17% gel was used. After separation, all gels were imaged using a FluorChem M imager (ProteinSimple, Bio-Techne, Minneapolis, MN). For glycoproteins samples, the gel was also imaged with traditional methods such as silver staining or trichloroethanol (TCE) staining.
For sLe^x synthesis, G0 was first converted to G2 by B4GalT1, then converted to A2[3] by ST3Gal4, and finally converted to A2[3]F2 (carrier of sLe^x) by FUT7 (FIG. 21A). During these steps, different amounts of enzymes, and multiple reaction times were applied to reveal the intermediate products.
Intermediate products are signs for the progress of each enzymatic step.

Setting [3] is: 0.2 μg enzyme, 30 μL, 37° C., 30 minutes.
Where [4] appears, read: 0.2 μg enzyme, 30 μL, 37° C., 30 minutes, listed as AF.
[5] abbreviates: 5 μg asialofetuin, 0.2 μg enzyme, 30 μL, 37° C., 30 minutes.
Setting [6] is: 5 μg asialofetuin, 0.2 μg enzyme, 30 μL, FIG. 4.

As for “MUC1: recombinant mucin from R&D Systems, contains O-glycans [reference compound]”, the “Lower limit of detection of acceptor protein labeled by ST3Gal1” value in the data set with ST3Gal1 (setting [3]) was “around 0.012 μg”.

As for “asialofetuin: desialylated fetal bovine fetuin, model glycoprotein from Sigma-Aldrich [reference compound]”, the results for the “Lower limit of detection of acceptor protein labeled by ST3Gal1” value with ST3Gal1 (setting [3]) and with ST3Gal1 (setting [4]) were 0.37 µg and “lower than 0.37 μg”, respectively. Also, the results for the “Lower limit of detection of acceptor protein labeled by ST6Gal1” value with ST6Gal1 (setting [3]) and with ST6Gal1 (setting [4]) were 0.37 µg and “lower than 0.37 μg”, respectively.

As for “cytidine monophosphate activated Cy5-conjugated sialic acid [CMP-Cy5-SA]”, on ST3Gal1 (setting [5]), the “Donor amount at which maximal labeling by ST3Gal1 was achieved” value is listed as 37.0 pmol and the “Donor amount at which visible labeling on asialofetuin by ST3Gal1 was observed” value was 4.11 pmol. On ST3Gal1 (setting [6]), the “Donor concentration for maximal labeling of asialofetuin by ST3Gal1” value came out at 1.2 µM. In addition, the Donor concentration needed for maximal labeling of asialofetuin by ST3Gal1 at ST3Gal1 (FIG. 4) worked out at 1.21 µM. Further, at ST6Gal1 (setting [5]), the “Donor amount at which maximal labeling by ST6Gal1 was achieved” value came out at 37.0 pmol and the “Donor amount at which visible labeling on asialofetuin by ST6Gal1 was observed” value turned out to be 1.37 pmol. The “Donor concentration for maximal labeling of asialofetuin by ST6Gal1” value at ST6Gal1 (setting [6]) came to 1.2 µM. At ST6Gal1 (FIG. 4), the Donor concentration needed for maximal labeling of asialofetuin by ST6Gal1 was 1.21 µM.

B1: α-N-acetylgalactosaminide α-2,6-sialyltransferase 1 (protein, UniProt Q9NSC7 1-600, looked up)
Alpha-N-acetylgalactosaminide …: MRSCLWRCRHLSQGVQWSLLLAVLVFFLFALPSFIKEPQTKPSRHQRTENIKERSLQSLAKPKSQAPTRARRTTIYAEPVPENNALNTQTQPKAHTTGDRGKEANQAPPEEQDKVPHTAQRAAWKSPEKEKTMVNTLSPRGQDAGMASGRTEAQSWKSQDTKTTQGNGGQTRKLTASRTVSEKHQGKAATTAKTLIPKSQHRMLAPTGAVSTRTRQKGVTTAVIPPKEKKPQATPPPAPFQSPTTQRNQRLKAANFKSEPRWDFEEKYSFEIGGLQTTCPDSVKIKASKSLWLQKLFLPNLTLFLDSRHFNQSEWDRLEHFAPPFGFMELNYSLVQKVVTRFPPVPQQQLLLASLPAGSLRCITCAVVGNGGILNNSHMGQEIDSHDYVFRLSGALIKGYEQDVGTRTSFYGFTAFSLTQSLLILGNRGFKNVPLGKDVRYLHFLEGTRDYEWLEALLMNQTVMSKNLFWFRHRPQEAFREALHMDRYLLLHPDFLRYMKNRFLRSKTLDGAHWRIYRPTTGALLLLTALQLCDQVSAYGFITEGHERFSDHYYDTSWKRLIFYINHDFKLEREVWKRLHDEGIIRLYQRPGPGTAKAKN
notes: recombinant human sialyltransferase, O-GalNAc specific
In the case of B1, the “Which of fetuin and asialofetuin the sialyltransferase labeled” value in data set [1] is “labeled both fetuin and asialofetuin”.

B2: α-N-acetylgalactosaminide α-2,6-sialyltransferase 2 (protein, UniProt Q9UJ37 1-374, looked up)
Alpha-N-acetylgalactosaminide …: MGLPRGSFFWLLLLLTAACSGLLFALYFSAVQRYPGPAAGARDTTSFEAFFQSKASNSWTGKGQACRHLLHLAIQRHPHFRGLFNLSIPVLLWGDLFTPALWDRLSQHKAPYGWRGLSHQVIASTLSLLNGSESAKLFAPPRDTPPKCIRCAVVGNGGILNGSRQGPNIDAHDYVFRLNGAVIKGFERDVGTKTSFYGFTVNTMKNSLVSYWNLGFTSVPQGQDLQYIFIPSDIRDYVMLRSAILGVPVPEGLDKGDRPHAYFGPEASASKFKLLHPDFISYLTERFLKSKLINTHFGDLYMPSTGALMLLTALHTCDQVSAYGFITSNYWKFSDHYFERKMKPLIFYANHDLSLEAALWRDLHKAGILQLYQR
notes: sialyltransferase, O-GalNAc specific
Take B2: in data set [1], the “Which of fetuin and asialofetuin the sialyltransferase labeled” value is “labeled both fetuin and asialofetuin”.

B3: α-2,3-sialyltransferase 4 (protein, UniProt Q11206 1-333, looked up)
CMP-N-acetylneuraminate-beta-g …: MVSKSRWKLLAMLALVLVVMVWYSISREDRYIELFYFPIPEKKEPCLQGEAESKASKLFGNYSRDQPIFLRLEDYFWVKTPSAYELPYGTKGSEDLLLRVLAITSSSIPKNIQSLRCRRCVVVGNGHRLRNSSLGDAINKYDVVIRLNNAPVAGYEGDVGSKTTMRLFYPESAHFDPKVENNPDTLLVLVAFKAMDFHWIETILSDKKRVRKGFWKQPPLIWDVNPKQIRILNPFFMEIAADKLLSLPMQQPRKIKQKPTTGLLAITLALHLCDLVHIAGFGYPDAYNKKQTIHYYEQITLKSMAGSGHNVSQEALAIKRMLEMGAIKNLTSF
notes: recombinant human sialyltransferase, N-glycan specific
In the case of B3, in data set [1], the “Which of fetuin and asialofetuin the sialyltransferase labeled” value is reported as “only labeled asialofetuin”. Moreover, the “Time for the complete conversion of G2 to A2[3]” value in data set [2] (FIG. 21B) came to 5 h. The “Activity based on reaction completion” value in data set [2] (substrate G2, completed product A2[3]) was 0.0084 pmol/min/µg. This molecule also gave a Relative activity in data set [2] (substrate G2, product A2[3], normalized to FUT6 on sLe^x synthesis) of 0.06.

B4: α-N-acetylgalactosaminide α-2,6-sialyltransferase 4 (protein, UniProt Q9H4F1 1-302, looked up)
Alpha-N-acetyl-neuraminyl-2,3- …: MKAPGRLVLIILCSVVFSAVYILLCCWAGLPLCLATCLDHHFPTGSRPTVPGPLHFSGYSSVPDGKPLVREPCRSCAVVSSSGQMLGSGLGAEIDSAECVFRMNQAPTVGFEADVGQRSTLRVVSHTSVPLLLRNYSHYFQKARDTLYMVWGQGRHMDRVLGGRTYRTLLQLTRMYPGLQVYTFTERMMAYCDQIFQDETGKNRRQSGSFLSTGWFTMILALELCEEIVVYGMVSDSYCREKSHPSVPYHYFEKGRLDECQMYLAHEQAPRSAHRFITEKAVFSRWAKKRPIVFAHPSWRTE
notes: as for B1
For B4, the “Which of fetuin and asialofetuin the sialyltransferase labeled” value in data set [1] is given as “only labeled fetuin”.

B5: α-2,3-sialyltransferase 2 (protein, UniProt Q16842 1-350, looked up)
CMP-N-acetylneuraminate-beta-g …: MKCSLRVWFLSVAFLLVFIMSLLFTYSHHSMATLPYLDSGALDGTHRVKLVPGYAGLQRLSKERLSGKSCACRRCMGDAGASDWFDSHFDGNISPVWTRENMDLPPDVQRWWMMLQPQFKSHNTNEVLEKLFQIVPGENPYRFRDPHQCRRCAVVGNSGNLRGSGYGQDVDGHNFIMRMNQAPTVGFEQDVGSRTTHHFMYPESAKNLPANVSFVLVPFKVLDLLWIASALSTGQIRFTYAPVKSFLRVDKEKVQIYNPAFFKYIHDRWTEHHGRYPSTGMLVLFFALHVCDEVNVYGFGADSRGNWHHYWENNRYAGEFRKTGVHDADFEAHIIDMLAKASKIEVYRGN
notes: recombinant human sialyltransferase, Core-1 O-glycan specific
Regarding B5, in data set [1], the “Which of fetuin and asialofetuin the sialyltransferase labeled” value is “primarily labeled asialofetuin, but also weakly labeled fetuin”.
